Data: the supplement of paper PMC7877785
± gives the uncertainty stated by the source.

Experiment: self-splicing fitness, log relative to wild type (ln ratio); higher = more splicing; Tetrahymena group I intron in knt gene, E. coli kanamycin selection, DiMSum; sequences stand for … in CUCUCU…GGAGGGAAAAGUUAUCAGGCAUGCACCUGGUAGCUAGUCUUUAAACCAAUAGAUUGCAUCGGUUUAAAAGGCAAGACCGUCAAAUUGCGGGAAAGGGGUCAACAGCCGUUCAGUACCAAGUCUCAGGGGAAACUUUGAGAUGGCCUUGCAAAGGGUAUGGUAAUAAGCUGACGGACAUGGUCCUAACCACGCAGCCAAGUCCUAAGUCAACAGAUCUUCUGUUGAUAUGGAUGCAGUUCACAGACUAAAUGUCGGUCGGGGAAGAUGUAUUCUUCUCAUAAGAUAUAGUCGGACCUCUCCUUAAUGGGAGCUAGCGGAUGAAGUGAUGCAACACUGGAGCCGCUGGGAACUAAUUUGUAUGCGAAAGUAUAUUGAUUAGUUUUGGAGUACUCGUGGUCG
Summary of the method: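 Pooled colonies went to amplicon sequencing on an Illumina HiSeq 2500 after six replicate transformations. The plates were LB agar with 100 μg/mL carbenicillin, 50 μM IPTG and 0.2% rhamnose, with or without 25 μg/mL kanamycin, incubated overnight at 37°C or 30°C. The E. coli BL21(DE3) library had all eight P1ex-region intron nucleotides randomised, the intron placed in the knt kanamycin-resistance gene on pET-22b(+). DiMSum fitness is the error-weighted combination of replicate fold changes, kanamycin against none, normalised to wild type.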

| Sequence | self-splicing fitness (ln) (30 °C) | self-splicing fitness (ln) (37 °C) |
| --- | --- | --- |
| GCCUAGCAAUAUUACGGGUA | -0.787 ± 0.072 | 0.611 ± 0.067 |
| GCCUAGCAAUAUUACGGUGA | -1.09 ± 0.067 | -0.113 ± 0.073 |
| GCCUAGCAAUAUUACGUCAC | -3.49 ± 0.24 | -2.04 ± 0.22 |
| GCCUAGCAAUAUUACGUCUA | -3.26 ± 0.38 | -1.73 ± 0.2 |
| GCCUAGCAAUAUUACGUGCC | -3.38 ± 0.23 | -2.08 ± 0.23 |
| GCCUAGCAAUAUUACGUUGG | -3.78 ± 0.32 | -2.7 ± 0.25 |
| GCGAAGCAAUAUUACGACAA | -2.21 ± 0.18 | -0.672 ± 0.12 |
| GCGAAGCAAUAUUACGACAG | -3.79 ± 0.16 | -1.97 ± 0.21 |
| GCGAAGCAAUAUUACGACCU | -0.269 ± 0.073 | -0.573 ± 0.086 |
| GCGAAGCAAUAUUACGACGA | 0.0165 ± 0.18 | 0.163 ± 0.2 |
| GCGAAGCAAUAUUACGACUG | -1.72 ± 0.14 | -0.66 ± 0.14 |
| GCGAAGCAAUAUUACGAGCC | -3.17 ± 0.23 |  |
| GCGAAGCAAUAUUACGAGGU | -2.98 ± 0.2 | -2.76 ± 0.33 |
| GCGAAGCAAUAUUACGCAAA | -3.14 ± 0.22 | -2.07 ± 0.17 |
| GCGAAGCAAUAUUACGCGCC |  | -1.73 ± 0.4 |
| GCGAAGCAAUAUUACGCUUA | -2.1 ± 0.21 | -0.759 ± 0.2 |
| GCGAAGCAAUAUUACGGAGA | -2.88 ± 0.26 | -2.87 ± 0.44 |
| GCGAAGCAAUAUUACGGCAA | -0.999 ± 0.16 | -0.804 ± 0.16 |
| GCGAAGCAAUAUUACGGGUC |  | -0.782 ± 0.19 |
| GCGAAGCAAUAUUACGGUAU | -3.35 ± 0.18 | -0.774 ± 0.1 |
| GCGAAGCAAUAUUACGGUGU | -3.59 ± 0.14 | -2.66 ± 0.13 |
| GCGAAGCAAUAUUACGUCAA | -3.02 ± 0.19 | -2.05 ± 0.15 |
| GCGAAGCAAUAUUACGUCAC |  | -2.82 ± 0.3 |
| GCGAAGCAAUAUUACGUCAG | -3.41 ± 0.2 | -2.52 ± 0.26 |
| GCGAAGCAAUAUUACGUCCA | -1.16 ± 0.086 | -0.269 ± 0.11 |

| Sequence | self-splicing fitness (ln) (30 °C) | self-splicing fitness (ln) (37 °C) |
| --- | --- | --- |
| GCGAAGCAAUAUUACGUGUG | -2.61 ± 0.12 | -1.67 ± 0.11 |
| GCGAAGCAAUAUUACGUUGA | -2.59 ± 0.15 | -2.33 ± 0.14 |
| GCGAAGCAAUAUUACGUUGC |  | -1.98 ± 0.2 |
| GCGAAGCAAUAUUACGUUGU | -3.58 ± 0.21 | -2.58 ± 0.18 |
| GCGAAGCAAUAUUACGUUUC | -2.9 ± 0.2 |  |
| GCGCAGCAAUAUUACGAACG | -1.37 ± 0.11 | -0.329 ± 0.17 |
| GCGCAGCAAUAUUACGACGG | -1.13 ± 0.14 | -0.906 ± 0.17 |
| GCGCAGCAAUAUUACGAGAC | -3.09 ± 0.23 | -1.18 ± 0.18 |
| GCGCAGCAAUAUUACGAGUU | -0.986 ± 0.066 | -0.241 ± 0.1 |
| GCGCAGCAAUAUUACGCAGG | -3.86 ± 0.31 | -2.09 ± 0.34 |
| GCGCAGCAAUAUUACGCAUA | -0.539 ± 0.1 | -0.285 ± 0.1 |
| GCGCAGCAAUAUUACGCCAG | -2.22 ± 0.26 | -2.28 ± 0.47 |
| GCGCAGCAAUAUUACGCGAG | -1.66 ± 0.08 | -0.987 ± 0.089 |
| GCGCAGCAAUAUUACGCUGU | -3.56 ± 0.23 | -2.86 ± 0.34 |
| GCGCAGCAAUAUUACGGAAG | -1.64 ± 0.12 | -1.66 ± 0.11 |
| GCGCAGCAAUAUUACGGACA | -1.45 ± 0.085 | -0.514 ± 0.089 |
| GCGCAGCAAUAUUACGGAGU | -2 ± 0.11 | -0.744 ± 0.13 |
| GCGCAGCAAUAUUACGGCCA | -0.728 ± 0.12 | -1.03 ± 0.12 |
| GCGCAGCAAUAUUACGGCGU | -3.18 ± 0.33 |  |
| GCGCAGCAAUAUUACGGGCC | -2.96 ± 0.22 | -3.25 ± 0.27 |
| GCGCAGCAAUAUUACGGGUG | -1.87 ± 0.083 | -1.65 ± 0.11 |
| GCGCAGCAAUAUUACGUCUG | -2.4 ± 0.14 | -2.99 ± 0.3 |
| GCGCAGCAAUAUUACGUGAC | -1.83 ± 0.095 | -1.03 ± 0.087 |
| GCGCAGCAAUAUUACGUGCC | -3.26 ± 0.18 | -2.75 ± 0.29 |
